Results from PMC7815755.

Key:
[1] = biological target: IRGB10 D185R mutant (head-to-head dimer disruption mutant) (mouse) (UniProt Q0GUM3); assay: SEC-MALS; tentative dimer peak of the head-to-head disruption mutants (Fig. 3e, g)
[2] = biological target: Immunity-related GTPase B10 (IRGB10), mouse, full length, wild type (mouse) (UniProt Q0GUM3); assay: SEC-MALS; third peak of the first SEC, Superdex 200 10/300, 20 mM Tris-HCl pH 8.0, 150 mM NaCl, room temperature, no GTP added

stoichiometry N [1]	stoichiometry N [2]	Substance
2	–	IRGB10 D185R mutant (head-to-head dimer disruption mutant) (from UniProt Q0GUM3 1-417) (natural protein)
–	2	Immunity-related GTPase B10 (IRGB10), mouse, full length, wild type (from UniProt Q0GUM3 1-417) (natural protein)
